Laboratory results taken from publication PMC7782096, “BAP1 suppresses prostate cancer progression by deubiquitinating and stabilizing PTEN” (Molecular Oncology, 2020).

Molecular target: T1, His-tagged BAP1 protein (UniProt Q92560 1-729)
T1 construct: BAP1, full length, inserted into pET-28a; also called His-BAP1; source: E. coli expressing system, purified
T1 sequence (looked up): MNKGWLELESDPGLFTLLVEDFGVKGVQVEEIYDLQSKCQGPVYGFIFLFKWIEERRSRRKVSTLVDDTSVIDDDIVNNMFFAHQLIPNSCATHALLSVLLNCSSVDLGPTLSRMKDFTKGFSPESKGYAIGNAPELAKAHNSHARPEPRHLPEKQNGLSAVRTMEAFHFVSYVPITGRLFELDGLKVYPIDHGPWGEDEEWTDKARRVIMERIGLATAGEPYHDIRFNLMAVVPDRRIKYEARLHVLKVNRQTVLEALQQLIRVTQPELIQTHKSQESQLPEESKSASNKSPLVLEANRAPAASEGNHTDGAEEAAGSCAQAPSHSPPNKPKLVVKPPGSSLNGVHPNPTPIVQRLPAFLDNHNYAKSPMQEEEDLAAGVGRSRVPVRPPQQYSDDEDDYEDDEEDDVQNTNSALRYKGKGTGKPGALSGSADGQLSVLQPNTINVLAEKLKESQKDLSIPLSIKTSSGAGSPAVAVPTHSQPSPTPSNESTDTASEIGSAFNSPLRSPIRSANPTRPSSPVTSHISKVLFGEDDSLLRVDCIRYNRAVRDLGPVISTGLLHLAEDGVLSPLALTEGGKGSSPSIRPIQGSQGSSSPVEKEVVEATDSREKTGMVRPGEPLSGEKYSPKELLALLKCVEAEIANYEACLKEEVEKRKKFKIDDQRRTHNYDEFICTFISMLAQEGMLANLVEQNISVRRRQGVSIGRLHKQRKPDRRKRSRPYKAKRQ
Test: pull-down; purified GST-PTEN on GST beads incubated with recombinant His-BAP1 purified from E. coli, 4 °C; western blotting
Conditions: both partners purified

B1: GST-tagged PTEN recombinant protein (natural protein)
chain: not shown
notes: PTEN; also called GST-PTEN; source: bacterially expressed (E. coli), purified
Q: Does B1 bind?
A: binds
